Test results as given in patent publication US20200362021A1 (PHANES THERAPEUTICS, published 2020).
No end group written: not given here. *: point of attachment. Biotin = O=C1N[C@H]2[C@H](CS[C@H]2CCCCC(=O)*)N1

Assays:
Biotin-APL17 = target: T1, Biotin-APL17; assay: ELISA, peptide on neutravidin plate, mAb 200 ng/ml, A405
T1 peptide: Biotin-KFRRQRPRLSHKGPMPF
Experimental: (§1) FIGS. 1A-1C show binding of anti-apelin mAbs to various biotinylated apelin peptides measured by ELISA. Biotinylated apelin peptides were immobilized on ELISA plates coated with neutravidin and purified recombinant rabbit anti-apelin mAbs were added for binding to the peptides on the plates. The binding was detected by adding a goat anti-rabbit IgG Fc-conjugated to alkaline phosphatase and PNPP substrate, and measured as the absorbance at 405 nm.
(§2) For the binding assay, neutravidin in carbonate coating buffer was coated on high binding ELISA plates at 1 μg/ml overnight. Peptides were added at 4 μg/ml after the plates were blocked with 1% BSA in TBS. After incubation of the plates at room temperature for 60 minutes, the plates were washed and then purified recombinant rabbit antibodies were added at 200 ng/ml. Following rabbit antibody binding to the peptides on the plates at room temperature for 90 minutes, goat anti-rabbit IgG Fc-conjugated to alkaline phosphatase was added, and antibody-antigen binding was detected by adding PNPP substrate and reading absorbance of ELISA plates at 405 nm. Each mAb was assayed in duplicate.

APL17-Biotin = target: T2, APL17-Biotin; assay: as above
T2 peptide: KFRRQRPRLSHKGPMPF-biotin
Experimental: as §1, §2

[1] = target: T3, pyr-apelin-13-biotin (pE-RPRLSHKGPMPF-biotin) (N-terminal pyroglutamate (pE); C-terminal biotin); assay: SPR (Biacore), pyr-apelin-13-biotin on streptavidin chip
T3 construct: also called pyrAPL13-Biotin
T3 peptide: ERPRLSHKGPMPF
Experimental: (§3) Anti-apelin mAbs at four different concentrations (12.5 nM, 25 nM, 50 nM and 100 nM) were captured on the chip surface. The on- and off-rate for antibody-antigen binding were measured, curve fitted and calculated.

[2] = target: T4, apelin-13-biotin (…-biotin) (C-terminal biotin); assay: SPR (Biacore), apelin-13-biotin on streptavidin chip
T4 construct: also called APL13-Biotin
Experimental: as §3

[3] = target: T5, biotin-apelin-13 (biotin-…) (N-terminal biotin); assay: SPR (Biacore), biotin-apelin-13 on streptavidin CM5 chip, mAb at 12.5-100 nM
T5 construct: also called Biotin-APL13
Experimental: as §3

[4] = target: T3, pyr-apelin-13-biotin …; assay: ELISA, peptide on neutravidin plate, mAb 200 ng/ml, A405
Experimental: as §1, §2

[5] = target: T5, biotin-apelin-13 (biotin-…); assay: SPR (Biacore) with biotin-apelin-13, humanized IgG1 mAb in HEK293 supernatant
Source text: The rabbit anti-apelin mAb C8 was humanized to reduce the potential of immunogenicity when used in human patients. The sequences of the variable regions of the heavy and light chains (VH and VL) were compared with the human antibody sequences in the Protein Data Bank (PDB) database and a homology model was built by applying SWISS-modeling. The CDRs in both the heavy and light chains of the rabbit mAb were grafted into human frameworks that have the highest possibility of maintaining the proper structure likely required for antigen binding. Backmutations from human residue to rabbit residue were designed when necessary. The sequences of the humanized VH and VL regions are shown in Table 11 and Table 12, respectively. The humanized VH and VL regions were fused to human IgG1 heavy chain and kappa light chain constant regions, respectively, to generate humanized mAbs. Constructs corresponding to the mAb sequences were used for transient transfection in HEK 293 cells and the supernatants were analyzed for the affinity of each humanized mAb for apelin.

B1: anti-apelin mAb C11 (antibody, V domains shown)
VH: QSLEESGGRLVSPGGSLTLTCTVSGIDLSSHAMDWVRQAPGKGLEWIGVIAPNDATYYPTWARGRFTISKTSTTVGLKMTRLTTEDTATYFCAAYPIDAGANVWGPGTLVTVSS
VL: DPMLTQTASPVSAHVGGTVTINCQSSESVDYNNQLSWYQQKPGQPPKRLMYYVSTLDSGVPSRFKGSGSGTQFSLTISDLECDDAGTYYCQGGYISNLYPFGGGTEVVVK
notes: recombinant rabbit IgG made in HEK293 cells
With B1 the binding result (Biotin-APL17) was “binds”, the binding result (APL17-Biotin) was “binds” and the Kd [1] was 0.141 pM. It also gave a Kd [2] of 39.3 pM.

B2: anti-apelin mAb C16 (antibody, V domains shown)
VH: QSLEESGGRLVTPGGSLTLTCTVSGIDLNSYAMDWVRQAPGKGLEWIGVIAPNHYTYYPTWARGRFTISKTSTTVDLKMTRLTTEDTATYFCATYPIESGSNIWGPGTLVIVSS
VL: DPVLTQTPSSVSAAVGGTVTIGCQSSESVGMNNQLSWYQQKPGQPPKRLMYYVSTLDSGVPSRFKGSGSGTQFSLTISDLECDDAGTYYCQGGYISNLYPFGGGTEVVVK
notes: as for B1
With B2 the binding result (Biotin-APL17) was “no binding (tested: 200 ng/ml)”, the binding result (APL17-Biotin) was “no binding (tested: 200 ng/ml)” and the Kd [1] was 6140 pM. It also gave a Kd [2] of 14300 pM.

B3: anti-apelin mAb C20 (antibody, V domains shown)
VH: QSLEESGGRLVTPGGSLTLTCTVSGIDLNNYAIDWVRQAPGKGLEWIGVIAPNHYTCYPTWARGRFTISKTSTTVDLKMTSLTTEDTATYFCAAYPIETGSNIWGPGTLVIVSS
VL: DPMLTQTPSSVSAAVGGTVTISCQSSESVDMNNQLSWYQQKPGQPPKRLMYYVSTLDSGVPSRFKGSGSGIHFSLTISDLECADAGTYYCQGGYISNLYPFGGGTEVVVK
notes: as for B1
With B3 the Kd [1] was 41.9 pM and the Kd [2] was 202 pM.

B4: anti-apelin mAb C14 (antibody, V domains shown)
VH: QSPEESGGRLVTPGGSLTLTCKISGVDLSNYAMDWVRQAPGKGLEWIGVIAPNDATYYPTWARGRLTISKTSTTVDLKMTRLTTEDTATYFCAAYPIDVGANVWGPGTLVTVSS
VL: DPMLTQTASPVSAAVGGTVTINCQSSESVDYNNQLSWYQQKPGQPPKRLMYYVSTLDSGVPSRFKGSGSGTQFSLTISDLECDDAGTYYCQGGYISNLYPFGGGTEVVVK
notes: as for B1
With B4 the binding result (Biotin-APL17) was “binds”, the binding result (APL17-Biotin) was “binds” and the Kd [1] was 6.49 pM. For the same binder, the Kd [2] was 141 pM.

B5: anti-apelin mAb C22 (antibody, V domains shown)
VH: QSLEESGGRLVTPGGSLTLTCTVSGIDLNNYAMDWVRQAPGKGLEWIGVIAPNHYTYYPTWARGRFTISKTSTTVDLKMTSLTTEDTATYFCATYPIETGSNIWGPGTLVIVSS
VL: DPVLTQTPSSVSAAVGGTVTISCQSSESVDMNNQLSWYHQKSGQPPKRLMYYVSTLDSGVPSRFKGSGSGTQFTLTISGVQCDDAGTYYCQGGYISNLYPFGGGTEVVVK
notes: as for B1
With B5 the binding result (Biotin-APL17) was “binds”, the binding result (APL17-Biotin) was “binds” and the Kd [1] was 0.155 pM. For the same binder, the Kd [2] was 107 pM.

B6: anti-apelin mAb C9 (antibody, V domains shown)
VH: QEQLEESGGDLVKPEGSLTLTCTASGFSFSSSYWICWVRQAPGKGLEWIACIYQSGDGRTWYASWAEGRFTISKTSPTTVTLQMASLTAADTATYFCARCPHNTYSHFDLWGPSTLVTVSS
VL: DIVMTQTPASVEAAVGGTVTIKCQASQSINSWLSWYQQKPGQPPKPLIYGASNLASGVPSRFKGSGSGTQFTLTISDLECADAATYSCLGYYYSSYNSVGFWAFGGGTEVVVK
notes: as for B1
In the case of B6, the binding result (Biotin-APL17) is reported as “binds”, the binding result (APL17-Biotin) is reported as “binds” and the Kd [3] is reported as 14800 pM.

B7: anti-apelin mAb C10 (antibody, V domains shown)
VH: QSLEESGGRLVTPGGSLTLTCTVSGIDLNSYAIDWVRQAPGKGLEWIGVIAPSGTTYYPTWAKGRFTISKTSTTVDLKVTGLTTEDTATYFCAAYPIDPGSNIWGPGTLVTVSS
VL: DPVLTQTPSSVSAAVGGTATIGCQSSESVDYGNQLSWYQQKPGQPPKRLAYYVSILDAGVPSRFKGSGSGTQFTLTISDLECDDAATYYCQGGYISNLYPFGGGTEVVVQ
notes: as for B1
B7 was tested, and the binding result (Biotin-APL17) was “no binding (tested: 200 ng/ml)”, the binding result (APL17-Biotin) was “no binding (tested: 200 ng/ml)” and the Kd [1] was 0.0482 pM. It also gave a Kd [2] of 6.46 pM.

B8: anti-apelin mAb C12 (antibody, V domains shown)
VH: QSLEESGGRLVTPGGSLTLTCTVSGIDLSSYAIDWVRQAPGKGLEWIGVIAPSSTTYYPTWAKGRFTISKTSSTTVDLKVIGLTTEDTATYFCAAYPIDPGSNVWGPGTLVTVSS
VL: DPVLTQTPSSVSAAVGGTVTIGCQSSESVDYGNQLSWYQQKPGQPPKRLTYYVSILDAGVPSRFKGSGSGTQFTLTISDLECDDAATYYCQGGYISNLYPFGGGTEVVVQ
notes: as for B1
For B8, the binding result (Biotin-APL17) was “no binding (tested: 200 ng/ml)”, the binding result (APL17-Biotin) was “no binding (tested: 200 ng/ml)” and the Kd [1] was 0.0555 pM. It also gave a Kd [2] of 3.55 pM.

B9: C13 (antibody, V domains shown)
VH: QSLEESGGRLAKPGETLTLTCTVSGIDLNSHAVDWVRQAPGKGLEWIGVIGPGGNTYYASWAKGRFTISKTSSTTVDLKMTSLTAEDTATFFCATYPIYSGDNIWGPGTLVTVSS
VL: DPVLTQTPPSVSAAVGGTVTINCQSSESVDNNNQLSWYQQKVGQPPKRLMYYASTLDSGVPSRFKGGGSGTHFTLTITDLECDDAATYYCQGGTATNIYPFGGGTEVVVK
notes: recombinant rabbit mAb; also called anti-apelin mAb C13
B9: binds (Biotin-APL17); binds [4].

B10: anti-apelin mAb C4 (antibody, V domains shown)
VH: LEQSGGGAEGGLVKPGGSLELCCKASGFTLSSSYWICWVRQAPGKGLEWIGCIHYGSSGTAYYASWVNGRFTLSRDIDQSTGCLQLNSLTAADTAMYYCARFLSDMYYYNLWGPGTLVTVSS
VL: QVLTQTPASVSAAVGGTVTINCQASQSIYNNNQLSWYQQKPGQPPKLLIYYASTLASGVSSRFKGSGSGTQFTLTISGVQCDDAATYYCQGQFNCRSADCHAFGGGTEVVVK
notes: as for B1
For B10, the binding result (Biotin-APL17) was “binds”, the binding result (APL17-Biotin) was “binds” and the Kd [3] was 4010 pM.

B11: humanized anti-apelin mAb A11 (antibody, V domains shown)
VH: QSLEESGGGLVQPGGSLRLSCAVSGIDLYSNRMSWVRQAPGKGLEWVSSIGSSPWYASWAQGRFTISRDNSNTLYLQMNSLTAEDTAVYYCAKGGYRPGASVWGQGTLVTVSS
VL: DIQLTQSPSSLSASVGDRVTITCQSSQSIYDNNDLAWYQQKPGKTPKRLIYLASSLDSGVPSRFSGSGSGTDFTLTISSLQPEDVATYYCAGGYSGDIYTFGGGTKVEIK
notes: humanized from C8; tested as HEK293 supernatant
With B11 the Kd [5] was 0.126 pM.

B12: humanized anti-apelin mAb A33 (antibody, V domains shown)
VH: QSLEESGGGLVQPGGSLRLSCAVSGIDLYSNRMSWVRQAPGKGLEWVGSIGSSPWYASWAQGRFTISRDNSNTVYLQMNSLTAEDTATYFCAKGGYRPGASVWGQGTLVTVSS
VL: AQVLTQSPSSLSASVGDRVTIACQSSQSVYDNNDLAWYQQKAGQTPKRLIYLASSLDSGVPSRFSGSGSGTEFTLTISSLQCEDVATYYCAGGYSGDIYTFGGGTEVVVE
notes: as for B11
B12 gave a Kd [5] of 0.0143 pM.

B13: humanized anti-apelin mAb A43 (antibody, V domains shown)
VH: QSLEESGGGLVQPGGSLRLSCTVSGIDLYSNRMSWVRQAPGKGLEWVGSIGSSPWYASWAQGRFTISRDNSNTVYLKMNSPTAEDTATYFCAKGGYRPGASVWGQGTLVTVSS
VL: AQVLTQSPSSLSASVGDRVTIACQSSQSVYDNNDLAWYQQKAGQTPKRLIYLASSLDSGVPSRFSGSGSGTEFTLTISSLQCEDVATYYCAGGYSGDIYTFGGGTEVVVE
notes: as for B11
In the case of B13, the Kd [5] is reported as 3.26 pM.

B14: humanized anti-apelin mAb A21 (antibody, V domains shown)
VH: QSLEESGGGLVQPGGSLRLSCAVSGIDLYSNRMSWVRQAPGKGLEWVSSIGSSPWYASWAQGRFTISRDNSNTVYLQMNSLTAEDTATYFCAKGGYRPGASVWGQGTLVTVSS
VL: DIQLTQSPSSLSASVGDRVTITCQSSQSIYDNNDLAWYQQKPGKTPKRLIYLASSLDSGVPSRFSGSGSGTDFTLTISSLQPEDVATYYCAGGYSGDIYTFGGGTKVEIK
notes: as for B11
B14 showed a Kd [5] of 0.00165 pM.

B15: humanized anti-apelin mAb A41 (antibody, V domains shown)
VH: QSLEESGGGLVQPGGSLRLSCTVSGIDLYSNRMSWVRQAPGKGLEWVGSIGSSPWYASWAQGRFTISRDNSNTVYLKMNSPTAEDTATYFCAKGGYRPGASVWGQGTLVTVSS
VL: DIQLTQSPSSLSASVGDRVTITCQSSQSIYDNNDLAWYQQKPGKTPKRLIYLASSLDSGVPSRFSGSGSGTDFTLTISSLQPEDVATYYCAGGYSGDIYTFGGGTKVEIK
notes: as for B11
Work on B15 yielded a Kd [5] of 0.067 pM.
